1 substance from paper PMC4609290 can be followed below.

The assay addresses H3(15-34) peptide (UniProt P68431). Put plainly: ITC. For orientation: Isothermal titration calorimetry measures the heat released or taken up as one component is titrated into another.

What is called Kd is the free concentration of one partner at which half of the binding sites on the other are occupied at equilibrium, for simple one-to-one binding. Lower therefore signals a tighter complex. With “AF10PZP (as used for ITC) (from UniProt P55197-1 1-208) (domain or fragment)”, the Kd was found to be 5 µM.
